Patent US20210113690A1 (BERLIN CHEMIE, published 2021)

How the values were obtained:
[1] = molecular target: T1, LY75 1029-1040 (human); assay: peptide microarray; region identified by signal above the cut off
T1 construct: Region put together from overlapping 8mers on the array
T1 peptide: RELTYSNFHPLL
Description: (§1) The peptide microarray analysis was performed by LC Sciences, Houston Tex., in brief the method comprised the following steps: —Contiguous 8mer peptides of LY75 protein having […] spanning residues 216 to 1666 of the full length LY75 protein were synthesized and immobilized on a microarray chip. The chip comprised three panels such that the experiment was performed in triplicate. […] The binding assay was performed under the following conditions:—
(§2) The microarray comprising the contiguous peptides in triplicate was washed with 1 mL of binding buffer at 4° C. for 20 min. […] The array was again washed with 0.5 mL of washing buffer at 4° C. for 30 min then incubated with 25 ng/mL anti-human IgG Alexa 647 conjugate in binding buffer (pH 7.0) at 4° C. for 1 hr. The array was again washed with 0.5 mL of washing buffer at 4° C. for 30 min.

[2] = molecular target: T2, LY75 761-780 (human); assay: as above
T2 construct: Region put together from overlapping 8mers on the array; also called Region 3 (aa761-780)
T2 peptide: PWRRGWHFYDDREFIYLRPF
Description: as §1, §2

[3] = molecular target: T3, LY75 883-901 (human); assay: as above
T3 construct: Region put together from overlapping 8mers on the array
T3 peptide: DDHFTYSRYPWHRFPVTFG
Description: as §1, §2

[4] = molecular target: T4, LY75 1077-1093 (human); assay: as above
T4 construct: Region put together from overlapping 8mers on the array
T4 peptide: FTSCSERHFVSLCQKYS
Description: as §1, §2

[5] = molecular target: T5, LY75 1107-1118 (human); assay: as above
T5 construct: Region put together from overlapping 8mers on the array
T5 peptide: TVKYLNNLYKII
Description: as §1, §2

[6] = molecular target: T6, RELTYSNF; assay: peptide microarray, 8mer on the chip, 1 µg/mL LY75_A1, anti-human IgG Alexa 647
T6 construct: LY75 8mer on the microarray
T6 peptide: RELTYSNF
Description: as §1, §2

[7] = molecular target: T7, TSCSERHF; assay: as above
T7 construct: LY75 8mer on the microarray
T7 peptide: TSCSERHF
Description: as §1, §2

[8] = molecular target: T8, NGSRWIQY; assay: as above
T8 construct: LY75 8mer on the microarray
T8 peptide: NGSRWIQY
Description: as §1, §2

[9] = molecular target: T9, AVYFHQHS; assay: as above
T9 construct: LY75 8mer on the microarray
T9 peptide: AVYFHQHS
Description: as §1, §2

[10] = molecular target: T10, GSRWIQYK; assay: as above
T10 construct: LY75 8mer on the microarray
T10 peptide: GSRWIQYK
Description: as §1, §2

[11] = molecular target: T11, GWHFYDDR (765-772) (human); assay: as above
T11 construct: Tryptic peptide of recombinant LY75, found by LC-MS/MS after pull down
T11 peptide: GWHFYDDR
Description: as §1, §2

[12] = molecular target: T12, KLSRLTYS; assay: as above
T12 construct: LY75 8mer on the microarray
T12 peptide: KLSRLTYS
Description: as §1, §2

[13] = molecular target: T13, YFHQHSIL; assay: as above
T13 construct: LY75 8mer on the microarray
T13 peptide: YFHQHSIL
Description: as §1, §2

[14] = molecular target: T14, LTYSNFHP; assay: as above
T14 construct: LY75 8mer on the microarray
T14 peptide: LTYSNFHP
Description: as §1, §2

[15] = molecular target: T15, QYKGHCYK; assay: as above
T15 construct: LY75 8mer on the microarray
T15 peptide: QYKGHCYK
Description: as §1, §2

[16] = molecular target: T16, LSRLTYSS; assay: as above
T16 construct: LY75 8mer on the microarray
T16 peptide: LSRLTYSS
Description: as §1, §2

[17] = molecular target: T17, YPWHRFPV; assay: as above
T17 construct: LY75 8mer on the microarray
T17 peptide: YPWHRFPV
Description: as §1, §2

[18] = molecular target: T18, SLSCYKVF; assay: as above
T18 construct: LY75 8mer on the microarray
T18 peptide: SLSCYKVF
Description: as §1, §2

[19] = molecular target: T19, FVSLCQKY; assay: as above
T19 construct: LY75 8mer on the microarray
T19 peptide: FVSLCQKY
Description: as §1, §2

[20] = molecular target: T20, YSNFHPLL; assay: as above
T20 construct: LY75 8mer on the microarray
T20 peptide: YSNFHPLL
Description: as §1, §2

[21] = molecular target: T21, HRFPVTFG; assay: as above
T21 construct: LY75 8mer on the microarray
T21 peptide: HRFPVTFG
Description: as §1, §2

[22] = molecular target: T22, DDHFTYSR; assay: as above
T22 construct: LY75 8mer on the microarray
T22 peptide: DDHFTYSR
Description: as §1, §2

[23] = molecular target: T23, YKSDQALH; assay: as above
T23 construct: LY75 8mer on the microarray
T23 peptide: YKSDQALH
Description: as §1, §2

[24] = molecular target: T24, RRGWHFYD; assay: as above
T24 construct: LY75 8mer on the microarray; aa 763-770 counted from Region 3 (aa761-780)
T24 peptide: RRGWHFYD
Description: as §1, §2

[25] = molecular target: T25, SCSERHFV; assay: as above
T25 construct: LY75 8mer on the microarray
T25 peptide: SCSERHFV
Description: as §1, §2

[26] = molecular target: T26, DHFTYSRY; assay: as above
T26 construct: LY75 8mer on the microarray
T26 peptide: DHFTYSRY
Description: as §1, §2

[27] = molecular target: T27, LY75 (DEC-205) on COLO205 cells (human, UniProt O60449 28-1722); assay: competitive FACS on COLO205 cells; competitor anti-LY75-mAb-MCC-DM1
T27 construct: also called Lymphocyte antigen 75
Description: Cells were washed and resuspended in FACS buffer (PBS+2% FBS), neutralized with growth media, and counted. Cells were plated at 50,000 cells per well in a V Bottom 96-well plate. Cells were washed once with FACS buffer (PBS (Fisher, catalog #SH30028-03)+2% FBS). […] Test wells that required single or multiple staining steps were left in FACS buffer as appropriate to ensure the final staining was completed simultaneously for all conditions tested. Two wells were left unstained in FACS buffer as controls.
After the incubation with blocking antibody, cells were washed twice in FACS buffer. […] The cells were washed as above and resuspended in FACS buffer plus 1 μg/ml mouse anti-maytansine antibody and incubated in ice for 45 minutes. The cells were washed as above and resuspended in FACS buffer containing 2 ug/ml goat anti-mouse kappa RPE. The cells were incubated on ice for 45 minutes then washed as above. The cells were resuspended in FACS buffer at 200 μl per well. Mean fluorescence intensity of each sample was determined using a Guava EasyCyte Plus HT Flow Cytometer (96 well plate formats) and the raw data was analyzed using the Guava Cytosoft.

Measured: binding result

T27 sequence (O60449 28-1722 limits assumed): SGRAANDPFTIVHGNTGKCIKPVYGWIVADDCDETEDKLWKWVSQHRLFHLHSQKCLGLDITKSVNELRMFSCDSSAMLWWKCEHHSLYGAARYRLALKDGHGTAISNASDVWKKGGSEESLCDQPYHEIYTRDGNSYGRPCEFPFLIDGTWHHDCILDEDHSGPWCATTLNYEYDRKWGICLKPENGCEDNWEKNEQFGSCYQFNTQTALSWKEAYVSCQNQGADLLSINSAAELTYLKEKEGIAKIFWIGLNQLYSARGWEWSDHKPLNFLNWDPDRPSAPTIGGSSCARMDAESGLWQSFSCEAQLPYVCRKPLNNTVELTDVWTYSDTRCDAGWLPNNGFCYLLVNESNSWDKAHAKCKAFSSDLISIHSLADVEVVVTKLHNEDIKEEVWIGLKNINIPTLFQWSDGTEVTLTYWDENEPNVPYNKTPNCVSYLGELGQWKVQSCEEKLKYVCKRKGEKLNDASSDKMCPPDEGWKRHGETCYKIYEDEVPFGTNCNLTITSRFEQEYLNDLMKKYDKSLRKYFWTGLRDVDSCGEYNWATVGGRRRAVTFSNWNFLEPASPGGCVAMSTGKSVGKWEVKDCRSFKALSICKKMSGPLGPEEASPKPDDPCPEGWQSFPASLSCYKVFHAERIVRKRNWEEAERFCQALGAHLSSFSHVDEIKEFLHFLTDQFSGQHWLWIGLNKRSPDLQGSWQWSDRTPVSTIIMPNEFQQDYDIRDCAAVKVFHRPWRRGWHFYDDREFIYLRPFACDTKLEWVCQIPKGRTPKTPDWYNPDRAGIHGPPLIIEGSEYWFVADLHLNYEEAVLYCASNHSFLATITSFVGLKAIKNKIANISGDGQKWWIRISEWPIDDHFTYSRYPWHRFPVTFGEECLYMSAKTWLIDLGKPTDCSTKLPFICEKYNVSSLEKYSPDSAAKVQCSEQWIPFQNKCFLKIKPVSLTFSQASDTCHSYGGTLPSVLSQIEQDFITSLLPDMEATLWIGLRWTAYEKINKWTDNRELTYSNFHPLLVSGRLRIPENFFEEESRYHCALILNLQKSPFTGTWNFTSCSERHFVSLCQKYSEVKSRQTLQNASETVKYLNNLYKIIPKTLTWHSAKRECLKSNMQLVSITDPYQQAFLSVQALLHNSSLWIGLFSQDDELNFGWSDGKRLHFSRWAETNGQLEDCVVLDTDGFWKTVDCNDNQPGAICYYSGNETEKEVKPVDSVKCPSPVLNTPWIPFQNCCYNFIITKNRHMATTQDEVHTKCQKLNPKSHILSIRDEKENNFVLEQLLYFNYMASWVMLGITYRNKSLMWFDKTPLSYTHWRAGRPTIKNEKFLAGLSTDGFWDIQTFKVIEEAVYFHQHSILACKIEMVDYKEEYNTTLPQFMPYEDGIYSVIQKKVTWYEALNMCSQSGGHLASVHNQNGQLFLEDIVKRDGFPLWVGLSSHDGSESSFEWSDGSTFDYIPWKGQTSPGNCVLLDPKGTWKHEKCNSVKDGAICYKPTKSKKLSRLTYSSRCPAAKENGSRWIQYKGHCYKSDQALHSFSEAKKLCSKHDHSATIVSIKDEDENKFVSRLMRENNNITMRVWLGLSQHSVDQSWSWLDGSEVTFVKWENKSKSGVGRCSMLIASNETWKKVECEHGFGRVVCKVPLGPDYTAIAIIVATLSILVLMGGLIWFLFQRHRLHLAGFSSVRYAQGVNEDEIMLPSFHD

B1: LY75_A1 monoclonal antibody (antibody, human IgG1, kappa, V domains shown)
VH: EVQLVESGGGLVKPGGSLRLSCAASGFTYSNAWMSWVRQAPGKGLEWVGRIKSKTDGGTTDYAAPVQGRFTISRDDSKNTLYLQMNSLKTEDTAVYYCTIFGVVSFDYWGQGTLVTVSS
VL: DVQMTQSPSSLSASVGDRVTITCRASQSISDYLSWYQQRPGKAPNLLIYAASNLKTGVPSRFSGSGSGTDFTLTISTLQPEDFATYYCQQSYRSPWTFGQGTKVEIKR
notes: also called LY75A1 antibody; antibody LY75_A1
binds: [1] | [2] | [3] | [4] | [5] | [6] | [7] | [8] | [9] | [10] | [11] | [12] | [13] | [14] | [15] | [16] | [17] | [18] | [19] | [20] | [21] | [22] | [23] | [24] | [25] | [26] | [27]
